In patent US9969998B2, “Compositions of adenosine deaminase-2 (ADA2), variants thereof and methods of using same” (Halozyme, Inc., priority 2014, dated 2018):

What was measured:
[1] = Heparin-affinity chromatography (heparin-Sepharose, SDS-PAGE); format: binding; conditions: for Heparin Column Binding: compared to WT rHuADA2, 0.3 mg/mL protein
[2] = Heparin binding ELISA (heparin coated microtiter plate); conditions: for Average OD450, heparin binding ELISA: Set 1, 3 μM protein; for Heparin Binding ELISA Average OD450: single and S265N combination variants (Table 34)
Outline: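 Plates coated with 200 μg/mL heparin in Na2CO3 buffer pH 9.6 overnight at 4° C, then milk-blocked. FLAG-tagged rHuADA2 variants added at 3 μM for 2 h at room temperature. Bound protein detected with HRP-anti-FLAG and TMB, read as OD450.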

[3] = Heparin binding capture ELISA (biotin-heparin on streptavidin plate); conditions: PEGylated and non-PEGylated forms (Table 22)
Description: Heparin binding of PEGylated rHuADA2 or variants was assessed by capture ELISA. Binding of rHuADA1 was assessed as a negative control. 100 μL of 0.2 mg/mL biotin-heparin (Sigma-Aldrich, St. Louis, Mo.; Cat No. B9806-10MG) was added to a streptavidin coated 96-well plate (Thermo Fisher Scientific, Rockford, Ill.; Cat. No. 15520), and incubated at room temperature for 1 hour. The plate was washed 6 times with PBS. Then, 150 μL of […] rHuADA2 was added to the heparin coated plate, titrated in 3× serial dilutions, and incubated at room temperature for 2 hours. The plate was then washed 6 times with PBS. A 1000× dilution of goat HRP-anti-FLAG pAb (Abcam, Cambridge, UK; Cat. No. Ab1238) was added to the ELISA plate and incubated at room temperature for 1 hour. The ELISA plate was then washed 6 times with phosphate buffered saline with Tween (PBST) and developed with the 3,3′,5,5′-Tetramethylbenzidine (TMB) substrate solution (Pierce, Thermo Fisher Scientific, Rockford, Ill.) according the manufacturer's instructions and reading the optical density at 450 nm (OD450) on a plate reader.

[4] = Spectrophotometric adenosine deaminase assay at varying pH (pH optimum); format: biochemical
Description: Adenosine deaminase activity of rHuADA2 and variants at varying pH were assessed to determine the pH optimum of each. The adenosine deaminase activity was determined spectrophotometrically by direct measurement of changes in adenosine absorbance. […] During the deamination reaction, the absorbance of ADO decreases while that of INO increases with time. Since the dynamic changes in absorbance make it difficult to monitor activity at a single wavelength, the relative ADO activity was determined as a ratio of the ADO peak to isobestic point (i.e. the wavelength where ADO and INO have the same extinction coefficient). The isobestic point, which is 253 nm, remains unchanged and is concentration independent, so that it is the reference point to correct for volume or intensity discrepancies.
To construct the standard curve for ADO and INO, a series of solution mixtures in 0.001% Tween-20 containing different concentrations of ADO and INO were prepared. The total concentration of ADO and INO mix was 50 μM, in 1×PBS (10 mM phosphate, 137 mM NaCl, 2.7 mM KCl), pH 7.4. The samples were scanned with the wavelengths between 220 nm and 300 nm to determine the isosbestic point, where all spectra cross.
For performing the spectrophotometric adenosine deaminase assay of ADA2 and variants, a 2× solution containing 10 mM ADO in 100 mM potassium phosphate buffer (KPB), 0.1% Tween-20 at different pHs (i.e. 5.5, 6, 6.5, 6.75, 7, 7.25, 7.4, 7.75 and 8) were prepared. A separate 2× solution containing 2 μg/mL WT rHuADA2 or variants were prepared in the same 100 mM potassium phosphate buffer (KPB), 0.1% Tween-20 at the respective pH (i.e. 5.5, 6, 6.5, 6.75, 7, 7.25, 7.4, 7.75 and 8). An equal volume of the ADO solution and the ADA2 solution (wildtype or variants) were mixed to initiate reaction. At each time point (i.e. 1, 3, 5, 7, 9, 11, 13 and 15 min), a small aliquot (4 μl) was removed and diluted 50 times by adding to 196 μl 1×PBS, pH 7.4. The diluted samples were further diluted 2 fold (in duplicates) by adding 85 μl samples to 85 μl 1×PBS in a UV-transparent half area plate. The absorbance at 253 nm and 261 nm were measured of each diluted sample.
Adenosine concentration was determined using the A261/A253 ratio and the standard curve. Adenosine deaminase activity was measured by negative change in ADO concentration per min×100.

[5] = mouse, in vivo, iv, 7.5 mg/kg
Description: Fifty four (54) male BALB/c mice were divided into six (6) dosing groups, and were further divided into three (3) groups each for sampling of blood at different time points. Thus, the mice were randomized into eighteen (18) groups total. Mice were weighed prior to the start of the study, and randomized into the 18 groups based upon their body weights. In each sampling group, three groups of (3) mice were used for dosing each test article to prevent oversampling of the blood from the animals. For measurement of baseline ADA2 levels, a blood sample was obtained from 12 randomly chosen mice and plasma was prepared using the anti-coagulant potassium (K3) ethylene diamine tetraacetic acid (K3-EDTA). All blood was collected by submandibular venipuncture.
Each mouse was injected by intravenous tail-vein injection with a 7.5 mg/kg dose of one of six ADA2 test article as set forth in Table 24, i.e. rHuADA2-K374D (K371D by mature numbering), PEG-rHuADA2-K374D (PEG-K371D by mature numbering), rHuADA2-R23E (R20E by mature numbering), PEG-rHuADA2-R23E (PEG-R20E by mature numbering), or WT ADA2 and PEG-WT ADA2.
Blood was collected at designated sampling time points from appropriate groups of mice as indicated below in Table 24 and kept on ice until plasma preparation. Plasma was prepared by centrifuging the blood (500×g for 5 min at 4° C.), transferring the plasma to a fresh tube and immediately freezing at −80° C. until the adenosine deaminase activity assay. Adenosine deaminase activity was determined as described in Example 4. The half-life, or time taken for the activity of ADA2 proteins to be reduced by half, was calculated. Also, total exposure was measured by calculating the Area Under the Concentration-time Curve (AUC).

| Molecule | heparin binding compared to WT [1] | Heparin Column Binding [1] | binding to heparin-coated plates compared to WT ADA2 [2] | Average OD450, heparin binding ELISA [2] | Heparin Binding ELISA Average OD450 [2] | Average OD450, heparin binding capture ELISA [3] | Adenosine deaminase activity Δ [ADO]/min × (−100) ([4]; pH 5.5) | Adenosine deaminase activity Δ [ADO]/min × (−100) ([4]; pH 6) | Adenosine deaminase activity Δ [ADO]/min × (−100) ([4]; pH 6.5) | Adenosine deaminase activity Δ [ADO]/min × (−100) ([4]; pH 6.75) | Adenosine deaminase activity Δ [ADO]/min × (−100) ([4]; pH 7) | Adenosine deaminase activity Δ [ADO]/min × (−100) ([4]; pH 7.25) | Adenosine deaminase activity Δ [ADO]/min × (−100) ([4]; pH 7.4) | Adenosine deaminase activity Δ [ADO]/min × (−100) ([4]; pH 7.75) | Adenosine deaminase activity Δ [ADO]/min × (−100) ([4]; pH 8) | AUC (mU * h)/mL [5] | Half life slow (t1/2) [5] [h] | Percent increase in AUC compared to WT ADA2 [5] [%] | Percent increase in t1/2 compared to WT ADA2 [5] [%] | pH optimum (highest deaminase activity) ([4]; pH 5.5 to 8, 5 mM ADO) |
| --- | --- | --- | --- | --- | --- | --- | --- | --- | --- | --- | --- | --- | --- | --- | --- | --- | --- | --- | --- | --- |
| K374D: ADA2 variant SEQ ID NO:20 (protein, human ADA2 K371D, mature numbering) IDETRAHLLLKEKMMRLGGRLVLNTKEELANERLMTLKIAEMKEAMRTLIFPPSMHFFQAKHLIERSQVFNILRMMPKGAALHLHDIGIVTMDWLVRNVTYRPHCHICFTPRGIMQFRFAHPTPRPSEKCSKWILLEDYRKRVQNVTEFDDSLLRNFTLVTQHPEVIYTNQNVVWSKFETIFFTISGLIHYAPVFRDYVFRSMQEFYEDNVLYMEIRARLLPVYELSGEHHDEEWSVKTYQEVAQKFVETHPEFIGIKIIYSDHRSKDVAVIAESIRMAMGLRIKFPTVVAGFDLVGHEDTGHSLHDYKEALMIPAKDGVKLPYFFHAGETDWQGTSIDRNILDALMLNTTRIGHGFALSKHPAVRTYSWDKDIPIEVCPISNQVLKLVSDLRNHPVATLMATGHPMVISSDDPAMFGAKGLSYDFYEVFMGIGGMKADLRTLKQLAMNSIKYSTLLESEKNTFMEIWKKRWDKFIADVATK | attenuated heparin binding | Reduced | attenuated binding to heparin | 0.15 | 0.87 | 0.87 | 12.19 | 10.68 | 14.22 | 12.90 | 13.22 | 12.86 | 10.55 | 1.55 | 3.46 | 74,983 (mU * h)/mL | 3.8 | 128 | 230 | – |
| K374E: ADA2 variant SEQ ID NO:21 (protein, human ADA2 K371E, mature numbering) IDETRAHLLLKEKMMRLGGRLVLNTKEELANERLMTLKIAEMKEAMRTLIFPPSMHFFQAKHLIERSQVFNILRMMPKGAALHLHDIGIVTMDWLVRNVTYRPHCHICFTPRGIMQFRFAHPTPRPSEKCSKWILLEDYRKRVQNVTEFDDSLLRNFTLVTQHPEVIYTNQNVVWSKFETIFFTISGLIHYAPVFRDYVFRSMQEFYEDNVLYMEIRARLLPVYELSGEHHDEEWSVKTYQEVAQKFVETHPEFIGIKIIYSDHRSKDVAVIAESIRMAMGLRIKFPTVVAGFDLVGHEDTGHSLHDYKEALMIPAKDGVKLPYFFHAGETDWQGTSIDRNILDALMLNTTRIGHGFALSKHPAVRTYSWEKDIPIEVCPISNQVLKLVSDLRNHPVATLMATGHPMVISSDDPAMFGAKGLSYDFYEVFMGIGGMKADLRTLKQLAMNSIKYSTLLESEKNTFMEIWKKRWDKFIADVATK | attenuated heparin binding | Reduced | attenuated binding to heparin | 0.11 | 0.03 | – | 15.76 | 19.15 | 27.09 | 25.72 | 24.63 | 21.88 | 18.32 | 5.98 | 4.25 | – | – | – | – | – |
| S265N: ADA2 variant SEQ ID NO:54 (protein, human ADA2 S262N, mature numbering) IDETRAHLLLKEKMMRLGGRLVLNTKEELANERLMTLKIAEMKEAMRTLIFPPSMHFFQAKHLIERSQVFNILRMMPKGAALHLHDIGIVTMDWLVRNVTYRPHCHICFTPRGIMQFRFAHPTPRPSEKCSKWILLEDYRKRVQNVTEFDDSLLRNFTLVTQHPEVIYTNQNVVWSKFETIFFTISGLIHYAPVFRDYVFRSMQEFYEDNVLYMEIRARLLPVYELSGEHHDEEWSVKTYQEVAQKFVETHPEFIGIKIIYNDHRSKDVAVIAESIRMAMGLRIKFPTVVAGFDLVGHEDTGHSLHDYKEALMIPAKDGVKLPYFFHAGETDWQGTSIDRNILDALMLNTTRIGHGFALSKHPAVRTYSWKKDIPIEVCPISNQVLKLVSDLRNHPVATLMATGHPMVISSDDPAMFGAKGLSYDFYEVFMGIGGMKADLRTLKQLAMNSIKYSTLLESEKNTFMEIWKKRWDKFIADVATK | – | – | attenuated binding to heparin coated plates | – | 0.88 | – | 24.61 | 31.59 | 41.30 | 44.46 | 45.16 | 50.99 | 45.81 | 25.16 | 3.70 | – | – | – | – | 7.25 |
